Data from US8252737B2, “Antimicrobial peptides and methods of use” (priority 2004, dated 2012).

Legend:
[1] = 50% TFE, 5° C., previous study (29); cited from earlier work
[2] = RP-HPLC temperature profiling (hydrophobicity and self-association/dimerization parameter PA); format: physicochemical
Experimental: The retention time data for the peptides is shown in Table 5 which records retention times at 5° C., the maximal retention times and retention times at 80° C. during the temperature profiling. Temperatures of 5° C. and 80° C. were the lower and upper temperature limits of temperature profiling in RP-HPLC, representing dimerization of the peptides at 5° C. and the monomerization of peptides at 80° C. due to dissociation of the dimers. The maximal retention times represent the threshold points at which peptides transform from dimeric to monomeric form. Among the non-polar face substituted peptides, peptides with more hydrophobic substitutions (whether L- or D-amino acid substitutions) were more retained during RP-HPLC, i.e., peptides were eluted in the order of Lys, Gly, Ser, Ala, Val and Leu (Table 5). In addition, on the non-polar face, the L-analogs were always more retained than the D-diastereomers (Table 5, FIG. 5). […] In contrast, on the polar face, the elution order of peptides was not correlated with the order of amino acid side-chain hydrophobicity, e.g., PAL and PSL were more retained than PVL (Table 5); PSD was the most retained peptide among the D-amino acid substituted analogs on the polar face (Table 5).
The ability of the D-peptides to self-associate was determined by RP-HPLC temperature profiling. […] As expected, L- and D-peptide enantiomers were totally inseparable over this temperature range, since each pair of peptides is identical in sequence and must adopt identical conformations on interacting with the reversed-phase matrix, whether in an all-L- or all-D-conformation. RP-HPLC retention behavior has been frequently utilized to represent overall peptide hydrophobicity (53, 26). In the present study, the hydrophobicity of the three peptide pairs is in the order V681/D-V681>[…]>NKL/D-NKD (Table 4), which agrees with the change in hydrophobicity of the substitutions at position 13 in order of the most hydrophobic to the least hydrophobic amino acid residue (Val in V681>Ala in NA>Lys in NK) (54). […] For example, the retention times of peptides V681/D-V681 increase with increasing temperature (up to ˜30° C.) followed by a retention time decrease with a further temperature increase. […] Since peptide C is a monomeric random coil peptide in both aqueous and hydrophobic media, its retention behavior over the temperature range 5° C. to 80° C. represents only general temperature effects on peptide retention behavior, i.e., a linear decrease in peptide retention time with increasing temperature due to greater solute diffusivity and enhanced mass transfer between the stationary and mobile phases at higher temperatures (55). Thus, after normalization to the retention times of peptide C, the retention behavior of the peptides represents only peptide self-association ability. Note that the higher the PA value, the greater the self-association ability. […] From Table 4, it is also clear that the peptide retention times at 80° C. are dramatically lower than those at 5° C.
Elution times during RP-HPLC have frequently been utilized as a measure of relative hydrophobicity of peptide analogs (26, 31). In the current study, peptide analogs differed only by a single amino acid substitution on either the non-polar face or the polar face of V681; thus, the retention time data in Table 5 can be considered to reflect the hydrophobicity difference between peptide analogs. In order to more easily visualize the variation in hydrophobicity of the peptide analogs, the retention time data in Table 5 were normalized relative to that of the native peptide V681 at 5° C. and 80° C., respectively. Hydrophobicity relative to the native peptide V681 indicates an increase or decrease of the apparent peptide hydrophobicity with the different amino acid substitutions on the polar or non-polar face. […]

Ac-ELEKGGLEGEKGGKELEK-amide (Ac-ELEKGGLEGEKGGKELEK-NH2) [peptide C, reference compound]
[θ]222 [1]: −3,950 | tR (min) 5° C. ([2]; RP-HPLC retention time at 5° C. during temperature profiling (measure of hydrophobicity)): 22.74 min | tR (min) 80° C. ([2]; RP-HPLC retention time at 80° C. during temperature profiling): 18.64 min
